Patent US20250115676A1

Assays:
[1] = biological target: shADAM9-His (His-tagged soluble human ADAM9) (human) (UniProt Q13443); experiment: BIACORE SPR; antibody captured on Fab2 goat anti-human Fc surface, shADAM9-His 6.25-100 nM as analyte; 1:1 Langmuir
[2] = biological target: shADAM9-His (His-tagged soluble human ADAM9) (human) (UniProt Q13443); experiment: binding affinity study (BIACORE, Table 7); reference not named
[3] = biological target: shADAM9-His (His-tagged soluble human ADAM9) (human) (UniProt Q13443); experiment: BIACORE SPR; antibody captured, huADAM9-His as analyte

Binder | Kd [1] [nM] | fold increase in affinity [2] [fold] | Kd [3] [nM] | koff [3] [s⁻¹] | kon [3] [M⁻¹ s⁻¹]
hMAB-A (2.3) (antibody, V domains shown) VH: EVQLVESGGGLVKPGGSLRLSCAASGFTFSSYWMHWVRQAPGKGLEWVGEIIPIFGHTNYNEKFKSRFTISLDNSKNTLYLQMGSLRAEDTAVYYCARGGYYYYGSRDYFDYWGQGTTVTVSS VL: DIVMTQSPDSLAVSLGERATISCRASQSVDYSGDSYMNWYQQKPGQPPKLLIYAASDLESGIPARFSGSGSGTDFTLTISSLEPEDFATYYCQQSHEDPFTFGQGTKLEIK | 1.3 | 2 | – | – | –
hMAB-A (2I.2) (antibody, V domains shown) VH: EVQLVESGGGLVKPGGSLRLSCAASGFTFSSYWMHWVRQAPGKGLEWVGEIIPIFGHTNYNEKFKSRFTISLDNSKNTLYLQMGSLRAEDTAVYYCARGGYYYYPRQGFLDYWGQGTTVTVSS VL: DIVMTQSPDSLAVSLGERATISCKASQSVDYSGDSYMNWYQQKPGQPPKLLIYAASDLESGIPARFSGSGSGTDFTLTISSLEPEDFATYYCQQSHEDPFTFGQGTKLEIK | – | – | 0.4 | 0.00023 | 660000
hMAB-A (2B.2) (antibody, V domains shown) VH: EVQLVESGGGLVKPGGSLRLSCAASGFTFSSYWMHWVRQAPGKGLEWVGEIIPIFGHTNYNEKFKSRFTISLDNSKNTLYLQMGSLRAEDTAVYYCARGGYYYYIGKGVLDYWGQGTTVTVSS VL: DIVMTQSPDSLAVSLGERATISCKASQSVDYSGDSYMNWYQQKPGQPPKLLIYAASDLESGIPARFSGSGSGTDFTLTISSLEPEDFATYYCQQSHEDPFTFGQGTKLEIK | – | – | 0.6 | 0.00039 | 610000
hMAB-A (3.3) (antibody, V domains shown) VH: EVQLVESGGGLVKPGGSLRLSCAASGFTFSSYWMHWVRQAPGKGLEWVGEIIPIFGHTNYNERFQGRFTISLDNSKNTLYLQMGSLRAEDTAVYYCARGGYYYYGSRDYFDYWGQGTTVTVSS VL: DIVMTQSPDSLAVSLGERATISCRASQSVDYSGDSYMNWYQQKPGQPPKLLIYAASDLESGIPARFSGSGSGTDFTLTISSLEPEDFATYYCQQSHEDPFTFGQGTKLEIK | 1.4 | 2 | – | – | –

Next, values leading:

Kd [1] [nM] | fold increase in affinity [2] [fold] | Kd [3] [nM] | koff [3] [s⁻¹] | kon [3] [M⁻¹ s⁻¹] | Binder
3.5 | – | – | – | – | hMAB-A (1.1) (antibody, V domains shown) VH: EVQLVESGGGLVKPGGSLRLSCAASGFTFSSYWMHWVRQAPGKGLEWVGEIIPINGHTNYNEKFKSRFTISLDNSKNTLYLQMGSLRAEDTAVYYCARGGYYYYGSRDYFDYWGQGTTVTVSS VL: DIVMTQSPDSLAVSLGERATISCKASQSVDYDGDSYMNWYQQKPGQPPKLLIYAASDLESGIPARFSGSGSGTDFTLTISSLEPEDFATYYCQQSHEDPFTFGQGTKLEIK
– | – | 0.8 | 0.00058 | 690000 | hMAB-A (2D.2) (antibody, V domains shown) VH: EVQLVESGGGLVKPGGSLRLSCAASGFTFSSYWMHWVRQAPGKGLEWVGEIIPIFGHTNYNEKFKSRFTISLDNSKNTLYLQMGSLRAEDTAVYYCARGGYYYYTGKGVLDYWGQGTTVTVSS VL: DIVMTQSPDSLAVSLGERATISCKASQSVDYSGDSYMNWYQQKPGQPPKLLIYAASDLESGIPARFSGSGSGTDFTLTISSLEPEDFATYYCQQSHEDPFTFGQGTKLEIK
2 | – | – | – | – | hMAB-A (4.4) (antibody, V domains shown) VH: EVQLVESGGGLVKPGGSLRLSCAASGFTFSSYWIHWVRQAPGKGLEWVGEIIPIFGHTNYNERFQGRFTISLDNSKNTLYLQMGSLRAEDTAVYYCARGGYYYYGSRDYFDYWGQGTTVTVSS VL: DIVMTQSPDSLAVSLGERATISCRASQSVDYSGDSYLNWYQQKPGQPPKLLIYAASDLESGIPARFSGSGSGTDFTLTISSLEPEDFATYYCQQSYSTPFTFGQGTKLEIK
1.4 | 2 | 0.6 | 0.00055 | 900000 | hMAB-A (2.2) (antibody, V domains shown) VH: EVQLVESGGGLVKPGGSLRLSCAASGFTFSSYWMHWVRQAPGKGLEWVGEIIPIFGHTNYNEKFKSRFTISLDNSKNTLYLQMGSLRAEDTAVYYCARGGYYYYGSRDYFDYWGQGTTVTVSS VL: DIVMTQSPDSLAVSLGERATISCKASQSVDYSGDSYMNWYQQKPGQPPKLLIYAASDLESGIPARFSGSGSGTDFTLTISSLEPEDFATYYCQQSHEDPFTFGQGTKLEIK
– | – | 1.4 | 0.00081 | 590000 | hMAB-A (2C.2) (antibody, V domains shown) VH: EVQLVESGGGLVKPGGSLRLSCAASGFTFSSYWMHWVRQAPGKGLEWVGEIIPIFGHTNYNEKFKSRFTISLDNSKNTLYLQMGSLRAEDTAVYYCARGGYYYYPRFGWLDYWGQGTTVTVSS VL: DIVMTQSPDSLAVSLGERATISCKASQSVDYSGDSYMNWYQQKPGQPPKLLIYAASDLESGIPARFSGSGSGTDFTLTISSLEPEDFATYYCQQSHEDPFTFGQGTKLEIK
3.6 | – | – | – | – | chMAB-A (antibody, V domains shown) VH: QVQLQQPGAELVKPGASVKLSCKASGYTFTSYWMHWVKQRPGQGLEWIGEIIPINGHTNYNEKFKSKATLTLDKSSSTAYMQLSSLASEDSAVYYCARGGYYYYGSRDYFDYWGQGTTLTVSS VL: DIVLTQSPASLAVSLGQRATISCKASQSVDYDGDSYMNWYQQIPGQPPKLLIYAASDLESGIPARFSGSGSGTDFTLNIHPVEEEDAATYYCQQSHEDPFTFGGGTKLEIK
